Biological target: c-Kit (CD117; mast/stem cell growth factor receptor) on CD117+ bone marrow cells of β-globin/GFP transgenic mice (mouse) (UniProt P05532)
Experiment: cell-based or functional assay

Sequence of UniProt P05532 (P05532 25-979): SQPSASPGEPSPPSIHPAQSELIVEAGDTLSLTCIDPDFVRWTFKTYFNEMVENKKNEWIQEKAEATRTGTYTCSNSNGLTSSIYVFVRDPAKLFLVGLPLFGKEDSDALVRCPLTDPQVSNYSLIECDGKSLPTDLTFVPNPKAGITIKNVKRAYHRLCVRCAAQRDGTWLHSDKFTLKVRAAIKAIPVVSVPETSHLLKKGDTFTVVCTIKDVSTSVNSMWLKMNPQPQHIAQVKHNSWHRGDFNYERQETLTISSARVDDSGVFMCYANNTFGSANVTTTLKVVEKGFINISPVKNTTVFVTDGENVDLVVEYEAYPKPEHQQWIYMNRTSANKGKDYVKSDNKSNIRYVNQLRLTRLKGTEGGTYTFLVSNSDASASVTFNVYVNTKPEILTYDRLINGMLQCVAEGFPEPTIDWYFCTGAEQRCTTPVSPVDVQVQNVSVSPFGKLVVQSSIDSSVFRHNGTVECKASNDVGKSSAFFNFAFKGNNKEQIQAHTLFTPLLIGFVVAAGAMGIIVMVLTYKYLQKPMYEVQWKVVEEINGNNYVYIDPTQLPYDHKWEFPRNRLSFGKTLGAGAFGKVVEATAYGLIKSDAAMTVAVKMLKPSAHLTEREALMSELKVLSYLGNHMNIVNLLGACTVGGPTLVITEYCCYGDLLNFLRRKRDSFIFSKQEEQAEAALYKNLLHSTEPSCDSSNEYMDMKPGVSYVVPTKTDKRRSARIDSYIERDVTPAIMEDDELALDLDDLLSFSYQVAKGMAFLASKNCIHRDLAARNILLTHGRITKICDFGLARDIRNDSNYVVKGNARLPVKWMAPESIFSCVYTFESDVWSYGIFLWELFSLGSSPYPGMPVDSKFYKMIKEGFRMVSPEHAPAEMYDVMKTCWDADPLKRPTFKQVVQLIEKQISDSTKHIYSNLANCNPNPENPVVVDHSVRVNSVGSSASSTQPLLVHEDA

## Recombinant murine SCF (stem cell factor), catalog #250-03, PeproTech (from UniProt P20826 26-189) (ligand)
  HDR activity (recombination between reporter gene constructs) in CD117+ cells: 2 fold
  γtcPNA4/donor DNA-mediated gene editing (% GFP expressing CD117+ cells, flow cytometry): 15%

From US20200113821A1
